These results are taken from US20080305111A1, “Anti-C35 antibodies for treating cancer” (VACCINEX, INC., priority 2006, published 2008).

In one assay the target is T1, rC35 (Homo sapiens, UniProt Q9BRT3).
T1 construct: made in house; host or cells: E. coli
T1 sequence (Q9BRT3 1-115): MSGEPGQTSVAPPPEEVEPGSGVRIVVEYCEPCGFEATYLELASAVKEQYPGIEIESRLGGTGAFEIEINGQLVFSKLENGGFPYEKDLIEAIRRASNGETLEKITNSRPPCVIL
Description: Biacore affinity testing of MAb 163 (1:1 kinetic model). The class given is binding. The procedure:
To measure affinity using Biacore, a CM5 chip surface was prepared by immobilizing Goat Anti-Human IgG Fc through amine coupling. The monoclonal human antibody MAb 163 was then captured by flow over the chip containing the Goat Anti-Human IgG. The rC35 was then serial diluted into two separate series to cover a wide range of concentration points and binding efficiencies, and then the C35 was allowed to flow over the chip containing bound MAb 163. The binding was recorded in a series of sensograms. The binding was evaluated using BIAevaluation software, where the Ka and Kd were calculated by fitting the curves and correcting for Mass Transfer.
In general terms: SPR reads the build-up and loss of mass on a sensor chip optically.

Assay [1] addresses T2, recombinant human C35 (rhC35) (Homo sapiens, UniProt Q9BRT3).
T2 construct: made in house; host or cells: E. coli
T2 sequence (Q9BRT3 1-115): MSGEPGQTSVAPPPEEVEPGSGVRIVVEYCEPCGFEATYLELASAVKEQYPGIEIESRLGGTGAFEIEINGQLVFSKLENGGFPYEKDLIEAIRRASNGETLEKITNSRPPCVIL
Description: Epitope mapping by Lys-C digestion of rhC35 and Western blot. It counts as binding. To be noted: residues numbered from amino terminal methionine of native human C35. From the text:
To localize the epitope specificity of 1B3 and 1F2 antibodies, recombinant human C35 (rhC35) synthesized with a 6×His tag in E. coli was digested with Lys-C endoproteinase. This enzyme cuts after lysine (K) residues in the protein sequence. […] The full sequence of rhC35, including the amino terminal 6×His tag addition is shown. Amino acid positions are numbered relative to the amino terminal methionine (M) of the native human sequence. Note that digestion at the first and third lysine followed by negatively charged residues is inefficient and some longer combination fragments may be generated. Lys-C endoproteinase was added to purified rhC35 at a 50:1 weight ratio and incubated for 18 hours at 37° C. in 25 mM Tris, pH 8.0. The digest was ethanol precipitated and resolubilized in reducing Tricine sample buffer. […] Peptides were transferred to PVDF membranes and the blots depicted in FIG. 10 were either stained with Coomassie blue (lanes 1-3 of both left and right panels) to detect all peptides or processed with one of the following: 1 μg/ml of the murine 1F2 anti-C35 antibody followed by alkaline phosphatase conjugated goat anti-mouse antibody (lane 4 of left panel); 1 μg/ml of the 1B3 anti-C35 immunoglobulin variable regions linked to human constant regions (MAb11) followed by alkaline phosphatase conjugated goat anti-human antibody (lane 5 of left panel); or anti-6×His tag mouse antibody (Amersham) followed by alkaline phosphatase conjugated goat anti-mouse antibody (lane 4 and 5 of right panel). BCIP/NBT substrate was added and developed to detect the secondary reagents. Molecular weight markers are indicated in the flanking lanes of both panels.
In FIG. 10, the indicated band A migrates at the position of undigested rhC35. Note that band B stains with 1F2 but not MAb11 (1B3) anti-C35 antibody while band C stains with neither 1F2 nor MAb11 (1B3) antibody. Since bands B and C both do stain with anti-6×His tag antibody to the 6×His tag at the amino terminus of rhC35, it may be concluded that both fragments lack C-terminal peptide fragments. […]
(In western blotting, separated proteins are transferred to a membrane and probed.)

For assay [2], the system named is C35-positive 21MT1-D cells. Description: Immunofluorescence staining (FMAT), C35-positive cells. It counts as cell-based, human. To be noted: MAb163 at 3, 1, 0.3 or 0.1 μg/ml.
The next assay deals with C35-negative H16N2 cells. Briefly: Immunofluorescence staining (FMAT), C35-negative cells. It counts as cell-based, human. To be noted: MAb163 at 3, 1, 0.3 or 0.1 μg/ml.
The target in assay [3] is T3, C35 (Homo sapiens, UniProt Q9BRT3).
T3 sequence (Q9BRT3 1-115): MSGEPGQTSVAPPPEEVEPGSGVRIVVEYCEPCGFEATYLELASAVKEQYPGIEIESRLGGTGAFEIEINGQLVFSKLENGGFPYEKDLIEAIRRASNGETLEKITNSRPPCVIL
Briefly: Western blot, tumor specific binding of MAb 163. Details: endogenous in cells; host or cells: 21MT1-D human breast tumor cell line.

Assay [4] deals with T3, C35. Briefly: Immunoprecipitation of C35 from 21MT1-D cell lysates. To be noted: detected with rabbit anti-C35 polyclonal sera; IgG negative control did not. The arrangement: endogenous in cells; host or cells: 21MT1-D human breast tumor cell line. It counts as binding. The protocol:
The number “15” indicates the molecular weight marker at 15 kDalton. The number “163” indicates the mAb163 monoclonal antibody. “Neg IgG” indicates an IgG negative control antibody.
Briefly, 10 ml of MAb163 in CHO cell supernatant was buffer-exchanged into PBS and concentrated to 1 ml. Concentrated MAb 163 was added to protein A beads for greater than one hour. After washing, protein A/MAb163 was added to C35-positive 21MT1-D cell lysates for 2 hours. After washing the beads, the protein was eluted with reducing sample buffer at 100° C.
Immunoprecipitated samples were analyzed by Western blot using rabbit anti-C35 polyclonal sera. As shown in the left lane of FIG. 22, lysate from 100,000 21MT1-D cells was included on the Western blot as a control. The number “15” in FIG. 22 indicates a molecular weight marker at 15 kDalton.

“Also recorded” adds a separate entry of the source.

B1: MAb 163: fully human C35-specific antibody; VH from clone H730 (SEQ ID NO:62), VL from clone L74 (SEQ ID NO:66) (antibody, V domains shown)
VH: EVQLVESGGGLVKPGGSLRLSCEVSGITFSNAWMSWVRQAPGKGLEWVGRIKSKTDGGTTDYAAPVKGRFTISRDDSKNTLYLQMNSLKTEDTAVYYCSIGYYYDSSFKYGMDVWGQGTTVTVSS
VL: DIQMTQSPATLSASVGDRVTITCRASQSISRWLAWYQQKPGQAPKVLIYKASTLQSGVPSRFSGSGSGTEFSLTINSLQPDDFATYYCQQYYSYLRTFGQGTKLEIK
modifications: VH of MAb163 (H730); VL of MAb163 (L74)
With B1, the KA with rC35 (BIAevaluation, 1:1 kinetic model) amounted to 2.96e+08 M⁻¹. In addition, in the assay with rC35 (MAb 163 captured on anti-human IgG Fc CM5 chip, rC35 in flow), the ka was determined as 284000 M⁻¹ s⁻¹. The epitope specificity result in assay [1] was “recognizes an epitope within amino acid residues 48 to 87 of C35; also recorded: specific for an epitope within amino acid residues 48 to 87 of C35”. In addition, the immunofluorescence staining entry is listed as “show dose-dependent immunofluorescence” in assay [2] and “do not show any immunofluorescence staining” in the assay on C35-negative H16N2 cells. Besides, in the assay with C35 [3] (21MT1-D human breast tumor cell lysate, MAb163 4.4 ug/ml), the “binding in Western blot, tumor cell lysate” value is “binds native C35 monomer in tumor cell lysate”. In addition, the “binding in Western blot, normal cell line” value with C35 [3] (H16N2 normal immortalized human breast cell line lysate) was “binding is absent in the normal cell line”. For the same molecule, the “binding in Western blot, recombinant C35” value in the assay with C35 [3] (rC35 purified from E. coli, 100 ng/lane) is “binds the rC35 monomer (16 kD), dimer (˜32 kD), and larger aggregates”. In addition, the “immunoprecipitation of C35” value with C35 [4] is “immunoprecipitated C35 protein”.
